These results are taken from patent US20240189443A1, “PD-L1 AND TLR7 DOUBLE-TARGETING NANOBODY COUPLING DRUG AND USE THEREOF IN ANTI-TUMOR” (SHANGHAI INSTITUTE OF MATERIA MEDICA, CHINESE ACADEMY OF …, priority 2021, published 2024).

Assay [1] deals with uninduced CT26 tumor cell. Kind of assay: Early CT26 subcutaneous tumor-bearing model (tumor volume<50 mm^3). Type of assay: in vivo, BALB/c mouse. How it is done:
(§1) The uninduced CT26 tumor cell subcutaneous was inoculated into a female BALB/C mouse to construct a tumor-bearing mouse model in the two models, and the inoculation amount was 1×10^6 cells/; the mice were divided into two groups, and each group was 8 mice, that is, a blank control group mFc (the concentration was 10 mg/kg), and a coupling compound Nb16-SZU-101 group (the concentration was 10 mg/kg); and the administration dosage was 200 μL, and the administration manner was an abdominal administration. In the early model (the tumor volume was<50 mm^3), the drug was administered in Day 4, Day 7, Day 10, Day 13, Day 16, and the drug was administered for 5 times; in the late model (the tumor volume was greater than 200 mm^3), the drug was administered in Day 9, Day 12, Day 15, Day 17, and the drug was administered for 4 times. The tumor size was measured 2-3 times a week, and a tumor growth curve was drawn.

In a further assay the target is T1, HEK293T/mPD-L1 (Mus musculus, UniProt Q9EP73).
T1 construct: expressed in transfected cells; host or cells: HEK293T
T1 sequence (Q9EP73 19-290): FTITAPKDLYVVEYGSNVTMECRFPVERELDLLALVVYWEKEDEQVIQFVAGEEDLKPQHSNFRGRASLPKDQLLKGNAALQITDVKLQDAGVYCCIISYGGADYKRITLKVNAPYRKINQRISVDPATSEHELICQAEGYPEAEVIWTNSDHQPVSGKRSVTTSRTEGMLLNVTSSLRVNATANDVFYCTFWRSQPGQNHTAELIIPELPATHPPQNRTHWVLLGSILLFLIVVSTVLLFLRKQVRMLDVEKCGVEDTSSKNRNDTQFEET
Kind of assay: Flow cytometry PD-L1 binding activity assay of the nanobody coupling drug. The conditions noted are these: 17 concentrations 100-0.0008 μg/mL. In general terms: Flow cytometry measures light scatter and fluorescence of single cells or particles in a stream.

Assay [2] addresses T2, PD-1/PD-L1 (HEK293T/mPD-L1) (Mus musculus, UniProt Q9EP73).
T2 construct: expressed in transfected cells; host or cells: HEK293T
The experiment in a line: Flow cytometry PD-1/PD-L1 blocking activity assay of the nanobody coupling drug. The assay is classed as binding. The conditions noted are these: mouse PD-1-biotin 20 μg/mL.

For assay [3], the system named is uninduced CT26 tumor cell. Kind of assay: Late CT26 subcutaneous tumor-bearing model (tumor volume>200 mm^3). The assay is classed as in vivo, BALB/c mouse. The protocol: as §1
The subject of assay [4] is CD4+T cells, CD8+T cells, NK cells, macrophages. The experiment in a line: Immune cell deletion analysis of conjugate efficacy. Type of assay: in vivo, Balb/c mice. The source says:
Balb/c mice were randomized into 6 groups of 6 mouse each. Corresponding groups are: MFC group, Nb16-SZU-101 group, Nb16-SZU-101+anti-CD4 group, Nb16-SZU-101+anti-CD8 group, Nb16-SZU-101+anti-NK1.1 group, Nb16-SZU-101+chlorophosphate liposome group. The administration of the mFc and Nb16-SZU-101 was consistent with example 8.1.
The immune cell deletion method comprised: deleting corresponding immune cells (CD4+T cells, CD8+T cells, NK cells) by intraperitoneal injection of antibody drugs (anti-CD4, anti-CD8, anti-NK1.1) respectively in Day 3 (200 ug/one)/Day 4 (100 ug/one)/Day 5 (100 ug/one), or intraperitoneal injection of chlorophosphate-liposomes to remove macrophages.
On Day 14 the mice would be euthanized.

Another assay relates to CT26 tumor cells. The experiment in a line: Re-tumor model with CT26 cells in mice with regressed tumor. Type of assay: in vivo, mouse. The conditions noted are these: re-tumor 1 week after tumor faded. The source says:
Moreover, in the early model, the coupling compound therapy will cause tumor regression of up to 62.5% tumor-bearing mice (FIG. 10B); in the late model, the compound drug will cause 12.5% tumor-bearing mice to have tumor regression (FIG. 10D).

T2 sequence (Q9EP73 19-290): as above

B1: Nb16-SZU-101: PD-L1 and TLR7 dual-targeting nanobody coupling drug, Nb16 coupled with SZU-101-NHS active ester (conjugate)
chain: QVQLQESGGGSVQAGGSLRLSCAASGYTDRNYWMGWFRQAPGKEREGVAALYTRTGSTYYADSVKGRFTISHDNAKNTLYLQMNSLKPEDTAVYYCAADSNAYGLAPLHHYWGQGTQVTVSS
modifications: left off: a dimerising Fc or GST
With B1, the “Lifetime (survival)” value in assay [1] and in assay [3] was “significantly prolong the lifetime” in each case. Further, the “Tumor growth inhibition rate” value in assay [1] (10 mg/kg abdominal administration, 5 doses) was 80.3%; in assay [3] (10 mg/kg abdominal administration, 4 doses) it was 78.9%. Also, the “Tumor-bearing mice with tumor regression” value in assay [1] (10 mg/kg, 5 doses) was “up to 62.5%”; in assay [3] (10 mg/kg, 4 doses), 12.5%. Further, in the assay with HEK293T/mPD-L1, the “PD-L1 binding activity of conjugate compared with Nb16” value is recorded as “does not change the binding activity”. Also, the “PD-1/PD-L1 blocking activity of conjugate compared with Nb16” value in assay [2] is listed as “does not change the blocking activity”. Moreover, the “Effect of deletion of CD4+T cells and macrophages on efficacy” value in assay [4] (anti-CD4 or chlorophosphate liposomes intraperitoneal) was “little influence on the efficacy”. In addition, in assay [4] (anti-CD8 or anti-NK1.1 intraperitoneal), the “Effect of deletion of CD8+T cells and NK cells on efficacy” value is reported as “greatly affects the efficacy”. Besides, the “Tumor growth after re-tumor of CT26 cells” value in the assay with CT26 tumor cells is “does not grow the tumor within 40 days”.
